Laboratory results published in IntAct's records for PubMed 11375976.

Target: TERF1, P54274-2
Sequence (P54274 other isoform, or with tags, fused parts or gaps): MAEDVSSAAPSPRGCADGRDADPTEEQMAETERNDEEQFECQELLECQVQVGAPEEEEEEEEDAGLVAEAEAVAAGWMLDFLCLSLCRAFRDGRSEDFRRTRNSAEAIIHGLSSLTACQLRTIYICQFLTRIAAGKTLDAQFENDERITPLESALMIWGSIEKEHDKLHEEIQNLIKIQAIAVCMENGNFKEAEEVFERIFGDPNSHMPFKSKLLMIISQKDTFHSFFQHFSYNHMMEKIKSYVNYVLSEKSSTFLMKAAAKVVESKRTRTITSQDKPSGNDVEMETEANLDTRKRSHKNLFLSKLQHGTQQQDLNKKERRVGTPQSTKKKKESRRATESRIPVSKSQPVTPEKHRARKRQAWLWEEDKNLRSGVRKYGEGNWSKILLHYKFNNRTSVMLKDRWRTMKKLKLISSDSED

effect of a mutation on the interaction: disrupting interaction
Substance: Serine-protein kinase ATM (Homo sapiens), Q13315 D2870A;N2875K
